Results as given in publication PMC12135372.

Experiments:
[1] = molecular target: Truncated Danio rerio tRNA ligase complex (His6-RTCB, FAM98B, CGI99, ASW 1-83, DDX1 693-740) (Danio rerio) (UniProt Q6NZS4)
[2] = molecular target: Full-length five-subunit Danio rerio tRNA ligase complex (DDX1, RTCB, FAM98B, CGI99, ASW) (Danio rerio) (UniProt F1R2L8)
[3] = molecular target: T1, Dr-tRNA-LC-TR (DDX1 C-term, RTCB, FAM98B, CGI99, ASW N-term) (Danio rerio) (UniProt F1R2L8+Q6NZS4+A0PJS3+Q7ZUH1); test: MST; conditions: 2 mM GTP, 2 mM MnCl2 (buffer B, implied by text); MST: 25 mM Hepes pH 7.5, 150 mM NaCl, 1 mM DTT, with or without 2 mM GTP and 2 mM MnCl2, 20 nM Cy5-tRNA, temperature not stated; crosslinking: 50 mM Tris pH …
T1 sequence 1: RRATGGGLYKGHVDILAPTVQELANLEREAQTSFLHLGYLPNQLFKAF
T1 sequence 2: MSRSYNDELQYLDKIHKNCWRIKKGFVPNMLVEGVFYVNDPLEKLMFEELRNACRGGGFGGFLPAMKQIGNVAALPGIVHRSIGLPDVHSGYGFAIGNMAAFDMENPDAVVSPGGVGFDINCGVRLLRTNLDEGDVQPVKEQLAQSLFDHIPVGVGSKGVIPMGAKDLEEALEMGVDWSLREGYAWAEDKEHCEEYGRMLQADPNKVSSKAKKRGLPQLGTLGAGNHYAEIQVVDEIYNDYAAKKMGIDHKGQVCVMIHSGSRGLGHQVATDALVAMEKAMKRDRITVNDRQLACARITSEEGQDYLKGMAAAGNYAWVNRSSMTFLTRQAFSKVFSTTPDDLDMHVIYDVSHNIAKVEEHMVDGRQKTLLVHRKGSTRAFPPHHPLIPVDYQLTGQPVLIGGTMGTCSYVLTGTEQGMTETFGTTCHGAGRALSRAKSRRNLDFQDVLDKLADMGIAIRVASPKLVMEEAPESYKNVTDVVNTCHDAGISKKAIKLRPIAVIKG
T1 sequence 3: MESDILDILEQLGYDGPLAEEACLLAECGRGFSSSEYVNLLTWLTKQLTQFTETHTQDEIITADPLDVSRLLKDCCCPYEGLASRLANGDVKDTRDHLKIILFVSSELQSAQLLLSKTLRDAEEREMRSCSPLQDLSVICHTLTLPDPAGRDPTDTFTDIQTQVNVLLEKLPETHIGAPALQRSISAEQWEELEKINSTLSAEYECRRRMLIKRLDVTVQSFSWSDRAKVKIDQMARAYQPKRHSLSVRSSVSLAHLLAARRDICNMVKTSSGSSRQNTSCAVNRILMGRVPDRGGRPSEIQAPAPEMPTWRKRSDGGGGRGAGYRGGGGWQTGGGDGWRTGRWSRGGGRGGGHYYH
T1 sequence 4: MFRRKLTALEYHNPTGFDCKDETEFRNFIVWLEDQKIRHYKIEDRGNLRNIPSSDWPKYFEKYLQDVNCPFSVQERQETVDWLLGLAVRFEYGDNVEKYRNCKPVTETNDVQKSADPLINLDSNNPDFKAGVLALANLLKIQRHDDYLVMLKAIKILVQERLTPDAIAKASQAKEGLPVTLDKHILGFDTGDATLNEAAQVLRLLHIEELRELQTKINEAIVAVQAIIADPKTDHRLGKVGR

[4] = molecular target: Dr-tRNA-LC-FL (DDX1, RTCB, FAM98B, CGI99, ASW) (Danio rerio) (UniProt F1R2L8+Q6NZS4+A0PJS3+Q7ZUH1); test: MST; conditions: 2 mM GTP, 2 mM MnCl2 (buffer B, implied by text); MST: 25 mM Hepes pH 7.5, 150 mM NaCl, 1 mM DTT, with or without 2 mM GTP and 2 mM MnCl2, 20 nM Cy5-tRNA, temperature not stated; crosslinking: 50 mM Tris pH …

RNA ligase activity on the short 10-bp RNA duplex substrate, percent of substrate converted to product, time course up to 120 min (0.15 μM complex, 0.6 μM Dr-Archease) [1]	RNA ligase activity on the short 10-bp RNA duplex substrate, percent of substrate converted to product, time course up to 120 min (0.15 μM complex, 0.6 μM Dr-Archease) [2]	Substance	Kd [3]	Kd [4]
85%	60%	Danio rerio Archease (natural protein)	–	–
–	–	GGCUCCAGUGGCGCAAUCGGUUAGCGCGCGGUACUUAUAAUGCCGAGGUUGUGAGUUCGAGCCUCACCUGGAGCACCA [tRNAIle]	0.0894 µM	0.094 µM
